Experimental data reported in US20250269047A1 (MABWELL SHANGHAI BIOSCIENCE, published 2025).

T1: recombinant human B7-H3-his extracellular domain protein (UniProtKB-Q5ZPR3, 1 aa-461 aa) (human, UniProt Q5ZPR3 29-461)
T1 construct: range 1-461; The printed range 1-461 starts at residue 1 and so includes the signal peptide; also called Human B7-H3 ECD; recombinant human B7-H3-his protein; not shown: C-terminal his tag
T1 sequence (looked up): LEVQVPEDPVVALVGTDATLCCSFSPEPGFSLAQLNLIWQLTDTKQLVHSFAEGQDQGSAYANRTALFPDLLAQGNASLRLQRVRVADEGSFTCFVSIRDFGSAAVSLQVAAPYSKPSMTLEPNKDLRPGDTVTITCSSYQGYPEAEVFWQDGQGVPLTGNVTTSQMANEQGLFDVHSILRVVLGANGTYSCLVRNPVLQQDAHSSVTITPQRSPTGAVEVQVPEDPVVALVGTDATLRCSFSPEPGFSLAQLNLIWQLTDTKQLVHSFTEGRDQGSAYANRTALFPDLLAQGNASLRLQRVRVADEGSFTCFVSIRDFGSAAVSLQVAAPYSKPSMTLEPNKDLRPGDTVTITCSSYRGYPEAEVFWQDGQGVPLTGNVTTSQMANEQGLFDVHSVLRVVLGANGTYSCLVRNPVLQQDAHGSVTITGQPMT


Molecular target: T1, recombinant human B7-H3-his …
Assay: BLI (Octet QKe), antibody on AHC biosensor, B7-H3-his 60 nM in solution
Experimental: According to the mutation designs, site-directed mutagenesis was performed in the plasmids expressing the humanized light chains and heavy chains respectively using StarMut gene Site-directed Mutagenesis Kit (Cat.: T111-01, GenStar). The mutated plasmids were transformed into E. coli cells for expansion, and plasmids expressing the humanized and mutated light and heavy chains based on the antibodies 9B11, 10B4, and 17A3 were obtained. […] 5-6 days after cell transfection, culture supernatants were purified through ProA affinity chromatography column to obtain different humanized antibodies. Affinities of the antibodies were determined by an assay including capturing Fc fragments of the antibodies with anti-human IgG Fc capture (AHC) biosensors using Octet QKe system instrument from Fortebio. For the assay, each of the humanized antibodies and the chimeric antibodies based on the antibodies 9B11, 10B4, and 17A3 was diluted to 4 μg/ml in PBS, and was allowed to flow through the surface of an AHC biosensor (Cat.: 18-0015, PALL) for 300 s. Recombinant human B7-H3-his protein (Accession No.: UniProtKB-Q5ZPR3, 1 aa-461 aa) was used as a mobile phase, and its concentration was 60 nM. The association time was 100 s and the dissociation time was 300 s. When the assay was finished, data from which the response values of blank control had been deducted were fitted to a 1:1 Langmuir binding model using software, and then kinetic constants for antigen-antibody binding were calculated. The light and heavy chain combinations and the affinity constant KD values of the humanized and the mutant antibodies based on the antibodies 9B11, 10B4, and 17A3 are shown in Tables 6-8 respectively.

Binder	Kd [nM]
hz17A3-6 (antibody, human IgG1, kappa, V domains shown, hz17A3_VH4 + hz17A3_VL3; human IgG1, kappa) VH: EVQLVQSGAEVKKPGASVKVSCKASGYTFTDYALHWVRQAPGQGLEWMGLISTYSSNTNYNQKFKDRVTMTRDTSISTAYMELSRLRSEDTAVYYCARGITAVVGTRYYAMDYWGQGTLVTVSS VL: EIVLTQSPGTLSLSPGERATLSCRASQSISNNLHWYQQKPGQAPRLLIKYTSQNISGIPDRFSGSGSGTDFTLTISRLEPEDFAVYYCQQSYSWPLTFGGGTKVEIKR	0.401
hz17A3-7 (antibody, human IgG1, kappa, V domains shown, hz17A3_VH5 + hz17A3_VL3; human IgG1, kappa) VH: EVQLVQSGAEVKKPGASVKVSCKASGYTFTDYALHWVRQAPGQGLEWMGLINTYSSSTNYNQKFKDRVTMTRDTSISTAYMELSRLRSEDTAVYYCARGITAVVGTRYYAMDYWGQGTLVTVSS VL: EIVLTQSPGTLSLSPGERATLSCRASQSISNNLHWYQQKPGQAPRLLIKYTSQNISGIPDRFSGSGSGTDFTLTISRLEPEDFAVYYCQQSYSWPLTFGGGTKVEIKR	0.422
hz17A3-8 (antibody, human IgG1, kappa, V domains shown, hz17A3_VH3 + hz17A3_VL4; human IgG1, kappa) VH: EVQLVQSGAEVKKPGASVKVSCKASGYTFTDYALHWVRQAPGQGLEWMGLINTYSSNTNYNQKFKDRVTMTRDTSISTAYMELSRLRSEDTAVYYCARGITAVVGTRYYAMDYWGQGTLVTVSS VL: EIVLTQSPGTLSLSPGERATLSCRASQSISNNLHWYQQKPGQAPRLLIYYTSQNISGIPDRFSGSGSGTDFTLTISRLEPEDFAVYFCQQSYSWPLTFGGGTKVEIKR	0.462
hz17A3-9 (antibody, human IgG1, kappa, V domains shown, hz17A3_VH4 + hz17A3_VL4; human IgG1, kappa) VH: EVQLVQSGAEVKKPGASVKVSCKASGYTFTDYALHWVRQAPGQGLEWMGLISTYSSNTNYNQKFKDRVTMTRDTSISTAYMELSRLRSEDTAVYYCARGITAVVGTRYYAMDYWGQGTLVTVSS VL: EIVLTQSPGTLSLSPGERATLSCRASQSISNNLHWYQQKPGQAPRLLIYYTSQNISGIPDRFSGSGSGTDFTLTISRLEPEDFAVYFCQQSYSWPLTFGGGTKVEIKR	0.431
hz17A3-10 (antibody, human IgG1, kappa, V domains shown, hz17A3_VH5 + hz17A3_VL4; human IgG1, kappa) VH: EVQLVQSGAEVKKPGASVKVSCKASGYTFTDYALHWVRQAPGQGLEWMGLINTYSSSTNYNQKFKDRVTMTRDTSISTAYMELSRLRSEDTAVYYCARGITAVVGTRYYAMDYWGQGTLVTVSS VL: EIVLTQSPGTLSLSPGERATLSCRASQSISNNLHWYQQKPGQAPRLLIYYTSQNISGIPDRFSGSGSGTDFTLTISRLEPEDFAVYFCQQSYSWPLTFGGGTKVEIKR	0.401
hz17A3-11 (antibody, human IgG1, kappa, V domains shown, hz17A3_VH3 + hz17A3_VL5; human IgG1, kappa) VH: EVQLVQSGAEVKKPGASVKVSCKASGYTFTDYALHWVRQAPGQGLEWMGLINTYSSNTNYNQKFKDRVTMTRDTSISTAYMELSRLRSEDTAVYYCARGITAVVGTRYYAMDYWGQGTLVTVSS VL: EIVLTQSPGTLSLSPGERATLSCRASQSISSNLHWYQQKPGQAPRLLIKYTSQNISGIPDRFSGSGSGTDFTLTISRLEPEDFAVYYCQQSYSWPLTFGGGTKVEIKR	0.299
hz17A3-12 (antibody, human IgG1, kappa, V domains shown, hz17A3_VH4 + hz17A3_VL5; human IgG1, kappa) VH: EVQLVQSGAEVKKPGASVKVSCKASGYTFTDYALHWVRQAPGQGLEWMGLISTYSSNTNYNQKFKDRVTMTRDTSISTAYMELSRLRSEDTAVYYCARGITAVVGTRYYAMDYWGQGTLVTVSS VL: EIVLTQSPGTLSLSPGERATLSCRASQSISSNLHWYQQKPGQAPRLLIKYTSQNISGIPDRFSGSGSGTDFTLTISRLEPEDFAVYYCQQSYSWPLTFGGGTKVEIKR	0.573
hz17A3-13 (antibody, human IgG1, kappa, V domains shown, hz17A3_VH5 + hz17A3_VL5; human IgG1, kappa) VH: EVQLVQSGAEVKKPGASVKVSCKASGYTFTDYALHWVRQAPGQGLEWMGLINTYSSSTNYNQKFKDRVTMTRDTSISTAYMELSRLRSEDTAVYYCARGITAVVGTRYYAMDYWGQGTLVTVSS VL: EIVLTQSPGTLSLSPGERATLSCRASQSISSNLHWYQQKPGQAPRLLIKYTSQNISGIPDRFSGSGSGTDFTLTISRLEPEDFAVYYCQQSYSWPLTFGGGTKVEIKR	0.699
hz17A3-15 (antibody, human IgG1, kappa, V domains shown, hz17A3_VH4 + hz17A3_VL6; human IgG1, kappa) VH: EVQLVQSGAEVKKPGASVKVSCKASGYTFTDYALHWVRQAPGQGLEWMGLISTYSSNTNYNQKFKDRVTMTRDTSISTAYMELSRLRSEDTAVYYCARGITAVVGTRYYAMDYWGQGTLVTVSS VL: EIVLTQSPGTLSLSPGERATLSCRASQSISNNLHWYQQKPGQAPRLLIKYTSQSISGIPDRFSGSGSGTDFTLTISRLEPEDFAVYYCQQSYSWPLTFGGGTKVEIKR	0.371
hz17A3-16 (antibody, human IgG1, kappa, V domains shown, hz17A3_VH5 + hz17A3_VL6; human IgG1, kappa) VH: EVQLVQSGAEVKKPGASVKVSCKASGYTFTDYALHWVRQAPGQGLEWMGLINTYSSSTNYNQKFKDRVTMTRDTSISTAYMELSRLRSEDTAVYYCARGITAVVGTRYYAMDYWGQGTLVTVSS VL: EIVLTQSPGTLSLSPGERATLSCRASQSISNNLHWYQQKPGQAPRLLIKYTSQSISGIPDRFSGSGSGTDFTLTISRLEPEDFAVYYCQQSYSWPLTFGGGTKVEIKR	0.299
hz17A3-17 (antibody, human IgG1, kappa, V domains shown, hz17A3_VH3 + hz17A3_VL7; human IgG1, kappa) VH: EVQLVQSGAEVKKPGASVKVSCKASGYTFTDYALHWVRQAPGQGLEWMGLINTYSSNTNYNQKFKDRVTMTRDTSISTAYMELSRLRSEDTAVYYCARGITAVVGTRYYAMDYWGQGTLVTVSS VL: EIVLTQSPGTLSLSPGERATLSCRASQSISSNLHWYQQKPGQAPRLLIKYTSQSISGIPDRFSGSGSGTDFTLTISRLEPEDFAVYYCQQSYSWPLTFGGGTKVEIKR	0.0328
hz17A3-18 (antibody, human IgG1, kappa, V domains shown, hz17A3_VH4 + hz17A3_VL7; human IgG1, kappa) VH: EVQLVQSGAEVKKPGASVKVSCKASGYTFTDYALHWVRQAPGQGLEWMGLISTYSSNTNYNQKFKDRVTMTRDTSISTAYMELSRLRSEDTAVYYCARGITAVVGTRYYAMDYWGQGTLVTVSS VL: EIVLTQSPGTLSLSPGERATLSCRASQSISSNLHWYQQKPGQAPRLLIKYTSQSISGIPDRFSGSGSGTDFTLTISRLEPEDFAVYYCQQSYSWPLTFGGGTKVEIKR	0.172
hz17A3-19 (antibody, human IgG1, kappa, V domains shown, hz17A3_VH5 + hz17A3_VL7; human IgG1, kappa) VH: EVQLVQSGAEVKKPGASVKVSCKASGYTFTDYALHWVRQAPGQGLEWMGLINTYSSSTNYNQKFKDRVTMTRDTSISTAYMELSRLRSEDTAVYYCARGITAVVGTRYYAMDYWGQGTLVTVSS VL: EIVLTQSPGTLSLSPGERATLSCRASQSISSNLHWYQQKPGQAPRLLIKYTSQSISGIPDRFSGSGSGTDFTLTISRLEPEDFAVYYCQQSYSWPLTFGGGTKVEIKR	0.411
hz9B11-1 (antibody, human IgG1, kappa, hz9B11_VH1 + hz9B11_VL1; human IgG1, kappa) heavy: not shown light: EIVLTQSPGTLSLSPGERATLSCRASQSINNNLHWYQQKPGQAPRLLIYYASQSISGIPDRFSGSGSGTDFTLTISRLEPEDFAVYYCQQSHSWPYTFGQGTKLEIKRTVAAPSVFIFPPSDEQLKSGTASVVCLLNNFYPREAKVQWKVDNALQSGNSQESVTEQDSKDSTYSLSSTLTLSKADYEKHKVYACEVTHQGLSSPVTKSFNRGEC	4.52
hz9B11-2 (antibody, human IgG1, kappa, hz9B11_VH2 + hz9B11_VL1; human IgG1, kappa) heavy: not shown light: EIVLTQSPGTLSLSPGERATLSCRASQSINNNLHWYQQKPGQAPRLLIYYASQSISGIPDRFSGSGSGTDFTLTISRLEPEDFAVYYCQQSHSWPYTFGQGTKLEIKRTVAAPSVFIFPPSDEQLKSGTASVVCLLNNFYPREAKVQWKVDNALQSGNSQESVTEQDSKDSTYSLSSTLTLSKADYEKHKVYACEVTHQGLSSPVTKSFNRGEC	6.28
hz9B11-5 (antibody, human IgG1, kappa, hz9B11_VH1 + hz9B11_VL3; human IgG1, kappa) heavy: not shown light: EIVLTQSPGTLSLSPGERATLSCRASQSINNNLHWYQQKPGQAPRLLIKYASQSISGIPDRFSGSGSGTDFTLTISRLEPEDFAVYYCQQSHSWPYTFGQGTKLEIKRTVAAPSVFIFPPSDEQLKSGTASVVCLLNNFYPREAKVQWKVDNALQSGNSQESVTEQDSKDSTYSLSSTLTLSKADYEKHKVYACEVTHQGLSSPVTKSFNRGEC	0.121
hz9B11-7 (antibody, human IgG1, kappa, hz9B11_VH1 + hz9B11_VL4; human IgG1, kappa) heavy: not shown light: EIVLTQSPGTLSLSPGERATLSCRASQSINNNLHWYQQKPGQAPRLLIYYASQSISGIPDRFSGSGSGTDFTLTISRLEPEDFAVYFCQQSHSWPYTFGQGTKLEIKRTVAAPSVFIFPPSDEQLKSGTASVVCLLNNFYPREAKVQWKVDNALQSGNSQESVTEQDSKDSTYSLSSTLTLSKADYEKHKVYACEVTHQGLSSPVTKSFNRGEC	3.07
hz9B11-8 (antibody, human IgG1, kappa, hz9B11_VH2 + hz9B11_VL4; human IgG1, kappa) heavy: not shown light: EIVLTQSPGTLSLSPGERATLSCRASQSINNNLHWYQQKPGQAPRLLIYYASQSISGIPDRFSGSGSGTDFTLTISRLEPEDFAVYFCQQSHSWPYTFGQGTKLEIKRTVAAPSVFIFPPSDEQLKSGTASVVCLLNNFYPREAKVQWKVDNALQSGNSQESVTEQDSKDSTYSLSSTLTLSKADYEKHKVYACEVTHQGLSSPVTKSFNRGEC	4.51
